{"source": "paper PMC6456224", "key": {"[1]": {"test_system": "HMG-box Pf (HMG-box domain of HMGB1) (Plasmodium falciparum)", "experiment": "MST", "conditions": "MST: 50 nM aptamer with probeFAM (4:1), PBS, room temperature, protein 0.1 nM-2 uM, stopped-flow: SELEX buffer (100 mM NaCl, 1.5 mM KCl, 5 mM MgCl2, 6 mM …)"}, "[2]": {"molecular_target": "HMG-box Hs (HMG-box domain of human HMGB1) (Homo sapiens) (UniProt P09429)", "sequence (P09429 whole entry, the tested form may be a part)": "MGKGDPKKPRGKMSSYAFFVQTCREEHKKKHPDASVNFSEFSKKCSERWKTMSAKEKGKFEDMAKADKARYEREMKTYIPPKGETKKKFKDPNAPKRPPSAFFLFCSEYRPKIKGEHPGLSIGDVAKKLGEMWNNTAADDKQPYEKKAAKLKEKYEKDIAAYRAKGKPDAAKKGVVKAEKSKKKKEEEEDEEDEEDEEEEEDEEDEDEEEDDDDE", "experiment": "MST", "conditions": "MST: 50 nM aptamer with probeFAM (4:1), PBS, room temperature, protein 0.1 nM-2 uM; stopped-flow: SELEX buffer (100 mM NaCl, 1.5 mM KCl, 5 mM MgCl2, 6 mM …)"}}, "data": [{"sequence": "TAGGGAAGAGAAGGACATATGATCGCGTGGGTTTGGCTCCGGGCCTGGCGGATGCACGTATAGTTGACTAGTACATGACCACTTGA [PfR6 (PfR6FAM)]", "values": [{"measurement": "Kd", "setting": "[1]", "result": 65, "unit": "nM"}, {"measurement": "Kd", "setting": "[1]; separate S4 experiment", "result": 64, "unit": "nM"}]}, {"sequence": "TAGGGAAGAGAAGGACATATGATGAGAAGGACTGCTTAGGCTTGCGATGTGAAATCTGTAATCTTGACTAGTACATGACCACTTGA [PfR1]", "values": [{"measurement": "Kd", "setting": "[1]", "result": 175, "unit": "nM"}]}, {"sequence": "TAGGGAAGAGAAGGACATATGATAGCCGTGGATTGCAAAGGGCTGCTGTGGCTTAGTTGAATGTTGACTAGTACATGACCACTTGA [PfR5]", "values": [{"measurement": "Kd", "setting": "[1]", "result": 560, "unit": "nM"}]}, {"sequence": "TAGGGAAGAGAAGGACATATGATGCCGACTACGTCAACCTGGGTCTGCTCGGGATTGCGGATGTTGACTAGTACATGACCACTTGA [PfE1]", "values": [{"measurement": "Kd", "setting": "[1]", "result": 81, "unit": "nM"}]}, {"sequence": "TAGGGAAGAGAAGGACATATGATACCGACTACGTCAACCTGGGTCTGCTCGGGATTGCGGATGTTGACTAGTACATGACCACTTGA [PfR4]", "values": [{"measurement": "Kd", "setting": "[1]", "result": 41, "unit": "nM"}]}, {"sequence": "TAGGGAAGAGAAGGACATATGATCACTAGGTCTGCTTAGGATTGCGTAAGTGAAAGTCATTTATTGACTAGTACATGACCACTTGA [PfR3]", "values": [{"measurement": "Kd", "setting": "[1]", "result": 1930, "unit": "nM"}]}, {"sequence": "TAGGGAAGAGAAGGACATATGATAGTTTACACCAAGGACTGCTTAGGATTGCGTTAGGGTATTTTGACTAGTACATGACCACTTGA [PfE3]", "values": [{"measurement": "fold lower affinity than HMG-box Pf (fold lower affinity than HMG-box Pf)", "setting": "[2]", "result": 10}, {"measurement": "Kd", "setting": "[1]", "result": 815, "unit": "nM"}, {"measurement": "Kd", "setting": "[1]; separate S4 experiment", "result": 740, "unit": "nM"}]}, {"sequence": "TAGGGAAGAGAAGGACATATGATAGATGCAAAGGACTGCTCAGGCTTGCGATGGCAGCTTCATTTGACTAGTACATGACCACTTGA [PfR2]", "values": [{"measurement": "Kd", "setting": "[1]", "result": 778, "unit": "nM"}]}, {"sequence": "TAGGGAAGAGAAGGACATATGATACCGACTACGTCAACTTGGGTCTGCTCGGGATTGCGGATGTTGACTAGTACATGACCACTTGA [PfE2]", "values": [{"measurement": "Kd", "setting": "[1]", "result": 55, "unit": "nM"}]}]}
